The target in this test is latent myostatin. As to the kind of experiment: BLI. The note with it: second pH 7.4.

For SRK-015, the “dissociation rate (koff), fold lower at pH 7.4 than at pH 5.0” value is listed as “approximately 20-fold”.

For the origin of these results see paper PMC6927069.
